Laboratory results: paper doi:10.1101/2025.09.08.674988

Experiments:
dynamic light scattering = settings: other: dynamic light scattering
[1] = target: FlAsH-labeled NS5B(Δ21)-FlAsH-His (Hepatitis C virus genotype 2a); assay: FRAP on a supported lipid bilayer
[2] = target: FlAsH-labeled NS5B(Δ21)-FlAsH-His (Hepatitis C virus genotype 2a); assay: fluorescence polarisation
[3] = target: FlAsH-labeled NS5B(Δ21)-FlAsH-His (Hepatitis C virus genotype 2a); assay: fluorescence polarisation; remark: listed apart in the source
[4] = target: FlAsH-labeled NS5B(Δ21)-FlAsH-His (Hepatitis C virus genotype 2a); assay: fluorescence polarisation; remark: listed apart in the source
[5] = target: NS5B(Δ21)-FlAsH-His (Hepatitis C virus genotype 2a); assay: dynamic light scattering

In the case of NS5B(Δ21)-FlAsH-His, the K0.5 (dynamic light scattering) is reported as “K0.5 ∼ 1.5 µM”.
For “FlAsH-labeled NS5B(Δ21)-FlAsH-His (enzyme)”, the Kd [1] was < 10 nM.
With NS5B(Δ21)-FlAsH-His (enzyme) the Kd [2] was 1000 nM, the Kd [3] was 1100 nM and the Kd [4] was 560 nM. For the same substance, the Kd [5] was 750 nM.
